Measurements from the DeepSol protein solubility set.

Assay: soluble on expression in E. coli; label from the status in PepcDB or PDB records
In the case of “GEDFFFVVMRDISSKKILEREFSMNEQLFKDLFDRAVDGIVLFDKDGGFIDANLSFCKSFEINHNELSHLSLYEFIDSGSRKDFDNIWKALNRKGKAKGELPVKLRSGVQKLFEFTITSNII”, the “soluble on expression in E. coli” value was “not soluble”. For “MGHHHHHHSHMDWNKTYAAIYRARKDYLKPIFEIDPIALKDLVGMESQKKALYENTLNFIQDKGANHALLWGSKGTGKSSLIKAIFNEFKEQGLRLVELNKEDLFALADIIDEIRLENFKFILFCDDFSFEKGDDSYKFLKPLLEGSIEKAPNNVIIYASSNRRHLLSESITDNLDTQITHTELHLSDAAEERLSLSDRFG”, the “soluble on expression in E. coli” value was “soluble”. With “MSQVFKDFDLSSVWKTNSWADENYKEAPFTPEILAAVESELGYKLPQSFIELMAVQNGGIFVKNCFPTTQRNSWAENHVQICEVSGIGFEKEGSLCGAMGQKLWLEEWEYPPIGVYFANDPSGGHAMFALDYRACGKDGEPKVVFVEQESDFEIVELAPDFETFIRSLRHEDEFIDEEI” the “soluble on expression in E. coli” value was “not soluble”. For “MKPLKEYLLIPTQMRVFETQTQAIETSLSVNAQTSESSEAFTVKKDPHEIKVTGKKSGESELVYDLAGFPIKKTKVHVLPDLKVIPGGQSIGVKLHSVGVLVGFHQINTSEGKKSPGETAGIEAGDIIIEMNGQKIEKMNDVAPFIQKAGKTGESLDLLIKRDKQKIKTKLIPEKDEGEGKYRIGLYIRDSAAGIGTMTFYEPKTKKYGALGHVISDMDTKKPIVVENGEIVKSTVTSIEKGTGGNPGEKLARFSSERKTIGDINRNSPFGIFGTLHQPIQNNISDQALPVAFSTEVKKGPAEILTVIDDDKVEKFDIEIVSTTPQKFPATKGMVLKITDPRLLKETGGIVQGMSGSPIIQNGKVIGAVTHVFVNDPTSGYGVHIEWMLSEAGIDIYGKEKASLEHHHHHH”, the “soluble on expression in E. coli” value was “not soluble”. In the case of “SLARKRRSTQRFSTTRKLKKERKIGTGKKEAEPLLPDLAEINAPDLMPTLVLNFDNVLASIAYDPVKGYIVRKRPGVDAFLSTLANFYELVLWSDHPFPFIEDLLRARLEWPISFTLYQENMDRRGSSRYRKIVQKGPFFKATRGVACSSGLSETAETLEEIFDNLERLGRRMDRVLYIDIDGSVLPSTQMRNFIKVTPFHGEAQEMLEDHALPELTDLLIGAAVSAGDVREMLLRYGGGADGNVGKR”, the “soluble on expression in E. coli” value was “soluble”. With “MSEQITFATSDFASNPEPRCPCILLLDVSGSMSGRPINELNTGLVTFRDELLADSLALKRVELGIVTFGPVHVEQPFTSAANFFPPILFAQGDTPMGAAITKALDMVEERKREYRANGISYYRPWIFLITDGAPIDEWQAAANKVFRGEEDKRFAFFSIGVQGADMKTLAQISVRQPLPLQGLQFRELFSWLSSSLRSVSRSTPGTEVVLEAPKGWTSV” the “soluble on expression in E. coli” value was “not soluble”. For “SLITVRIGGNEYPLDEVLEDPGRYARHLERAKTIQGFAECGCAEGRPRPKLVIRRHRDIFLLARWPEQAFRHAEGCPFHRKTQTTPGAADSLDAFRMRDGRHDIRLDASLSVSTHTPAKTVQRTPKGQFTKPQRRSAGLLALLEFAWEQAGLNVWPGTGARSWNGCWSQLTAELDDCRINGKDADGLLHVMQRWDPARKSEILAEFEAWQARLSPTAAGNPRGILIGEIESHAATQYGGKVVLRQSTQRFFMSSGLYERLQASFGTALAGIGRAEQRCVAVLLVEKSRSNYLTVVDIGAMLANRQFLPCDSSHEVAMADHLVALRRAFRKPLRHIGRAEVHPDFVLTDVQPETVIEVLGMAGNPAYDARTASKRQHYQTAGVPFLEWDAVATSISSVRVPPAGTRAADAR”, the “soluble on expression in E. coli” value was “soluble”. In the case of “HYRRHSVESKLARAALDGMTAVMISDASLRIIMVNQEFENMMGYSTEQVKGSNAHSLILLPEDLEETLNIWNKLGRENVWEGEVRCRTQLNHVFTAIMRIQANLTKSGKISYYITSLVDISE”, the “soluble on expression in E. coli” value was “not soluble”. In the case of “MPKIISKRKFNILRKTKEEIFSQIVYTKKRNGLHKAAKEYYFKDKDFTIIEDQQDRPDKPEELDTPDIPKPPKPPKGPDQPEEPGQPGGPDDPNSGNKKMPKPDEFVTHRQLQEFKKDLLVELHEIFPTKPELKRVEEKVDVLFELQKAQGEQIRIQGEQIKELKVEQKAQGETLQLILQTLQKMNDRLDKIEGKMDKMESRMDKMETRLDKLESKLEHHHHHH”, the “soluble on expression in E. coli” value was “not soluble”. With “IFPFKEPPMALEKHGTCLCGDTRLTVTVDNTHISACHCSMCRKWTGGPLLVVHCSKPPLIEGRAPSVYDSSDWAQRAFCGRCGTHLYYRLKANDFHAVPVGLLDGDQAWDFDLQIFVEEKPAWYCFANQTKELSGQE” the “soluble on expression in E. coli” value was “not soluble”. For “MANLTEKFLRIFARRGKSIILAYDHGIEHGPADFMDNPDSADPEYILRLARDAGFDGVVFQRGIAEKYYDGSVPLILKLNGKTTLYNGEPVSVANCSVEEAVSLGASAVGYTIYPGSGFEWKMFEELARIKRDAVKFDLPLVVESFPRGGKVVNETAPEIVAYAARIALELGADAMKIKYTGDPKTFSWAVKVAGKVPVLMSGGPKTKTEEDFLKQVEGVLEAGALGIAVGRNVWQRRDALKFARALAELVYGGKKLAEPLNV”, the “soluble on expression in E. coli” value was “soluble”. For “MAHHHHHHMAADKDTPDSLGHSQTMAAEGTKGVATEQQPQASPSSSSAAAAATSMSVAETTATDATTAAASRKAPAPHDKAVAVNEGSTARVAAASSSSSTASSSASVDEQRRRRLALYGSRAMAAGGKKGPALAADPHHPSTPHGSAHGRHALTAFGARRGGELAFYIQQGGDLTSQGRYLVIGDGLMAPFMALCLRVHGLECDLAHHPSQNDLDRGTVVLTPSVTQLMGDVLNVSVPSGSVVGRVLTFDHVGNDMCDVDLNEFREKGESPTFFCCDRLKVESALMSLCRIGAHSCMVLPKPQIDKGGLEPLESGGVRVRFTSGLQQDYLGVICTARNQELVPELTITNEELQARAENAEKYRDTFSKSVRWMELCVPPLPELGKFEKRFTPGSQEIVEILTPRDAKMTVRPTMMATKLFYNVTLTIPDGTADPRLKSTSTKLFWDDVVMHWTSGVPGYISHTMFRPMFTHLQQNFTKSSALVYRTPLFLMPHWSEGGGRVIKVAHAAHGSCFDAVDVSDAQGFTDCFTLARTIAGGEDVAAFLKERRLQVMEEMDHHSRLTYYGLKERGQMAYMMSRFNMKIMRKYKKSWRSILQNYVTLMPKSIPR”, the “soluble on expression in E. coli” value was “soluble”. With “MSLYISYSPLRITFGGGGTDVEPFLSKHGGAVVNATIDRGVSVRYIEDEFQLELSSRDFVRSYIVNMHRAASVTKMMADFLSEAGITNGRVIMSGDAPPGSGLGSSSSAVSALMNLVNSIRGRTVDPATLAEESYNLERNHFHVVLGKQDPYAIAYGGFKYMEFGADGVKREDLGQYSEFTTELQRRILLVYTGKTRQSSEVLMEQVKASEMGDEKTDRNLLQMKDVARRLRDAVVKNDMDEFAHQINRGWEIKKSLSSRITNDHIDRIIALALSNGAQAARLMGGGSQGFVLVMCKPENLNYIQRRMMSISNFVVRTSFDMKGTRMIGHEGHHHHHH” the “soluble on expression in E. coli” value was “not soluble”. In the case of “AHHHHHHGSGRFKKVPSSLCPMKKPGDVLREILQEKGIKSVGTLSRKWPSGRDIYQELALLLLEGDGAIVELREETAESWDLNGKKVGPSKYAYVRPCFVEKFKVIVDGSEIAKRLPDYPWIIVDLTFWNRHIPKEKDKVALQLRETYAVVRRMYYPRRFAITWVNEEFKKKNKVPLEKVVSYEGSTADFLREKGINRVVLLDPNAEEVLSREDLQERAFIIGGIVDMKGDKKGTTAKIGEVLEKEGIDVLRRKIVLRGDIVGVPDRINHIAEILLRMLYGEDMEKAILAVQAPTHARWRLRKEIPKRKIRYLIDGKLYLVVEKELYDELKQWLNIRWEDFVKVLRETGMVALERRRIHHLNKISVFRFDKSGGKRVILLKRAALLCYNC”, the “soluble on expression in E. coli” value was “soluble”. With “MANEMKVFLLTKQGQEVMERQRKKQVLLSDPKAVYQDHFVSVRPDCLVVKKYFIPSMLPFEFHWDKIETMTYLPQNNENKLLVPNRGQDQEGRWWATDVLRPHERELHLYNVRIDVADTEPSKSGFTVIHIDQFLKSCRHLLPYSCKLSGCVWSE” the “soluble on expression in E. coli” value was “not soluble”. In the case of “MSRRGLEREGGKPVSSDAKGLKRVDVRLKWDPSPWDRPPHHLDIIATTYAADAPHGRPVYVVQFDKRSPDGTINMSRHSRTGQGFGFVEEMTFELDRLSPSIARVIVGVAIHQDNGHKTFDDVSNTGVVVAEGYRELLTDGFERVAGATAATVAEFTRNASGAWEFREAVRGFDSDPVLFATEMGSAPRP”, the “soluble on expression in E. coli” value was “soluble”. For “SVIRELNKNWQSHAFDGFEVNWTEQQQMVSCLYTLGYPPAQAQGLHVTSISWNSTGSVVACAYGRLDHGDWSTLKSFVCAWNLDRRDLRPQQPSAVVEVPSAVLCLAFHPTQPSHVAGGLYSGEVLVWDLSRLEDPLLWRTGLTDDTHTDPVSQVVWLPEPGHSHRFQVLSVATDGKVLLWQGIGVGQLQLTEGFALVMQQLPRSTKLKKHPRGETEVGATAVAFSSFDPRLFILGTEGGFPLKCSLAAGEAALTRMPSSVPLRAPAQFTFSPHGGPIYSVSCSPFHRNLFLSAGTDGHVHLYSMLQAPPLTSLQLSLKYLFAVRWSPVRPLVFAAASGKGDVQLFDLQKSSQKPTVLIKQTQDESPVYCLEFNSQQTQLLAAGDAQGTVKVWQLSTEFTEQGPREAEDLDCLAAEVAA”, the “soluble on expression in E. coli” value was “soluble”. In the case of “MQQIFFKDPILGEVLFDQQTKWMYELVETEAFRRLRNIKQLGINFHFYPGGVHT”, the “soluble on expression in E. coli” value was “not soluble”. With “MKITLIIPTYNAGSIWPNVLDAIKQQTIYPDKLIVIDSGSKDETVLLASDLKNISIFNIDSKDFNHGGTRNLAVTKTLDADVIIFLTQDAILADSDAIKNLVYYFSDPLIAAVCGRQLPHKDANPLAVHARNFNYSSKSIVKSKADIEKFGIKTVFMSNSFAAYRRSVFEELSGFPEHTILAEDMFMAAKMIQAGYKVAYCAEAVVRHSHNYTPREEFQRYFDTGVFHACSPWIQRDLGGAGGEGFRFVKSEIQFLLKNAPFWIPRALLTTFAKFLGYKLGKHWQSLPLSTCRYFSMYKSYWNNIQYSSSKEIKLEHHHHHH” the “soluble on expression in E. coli” value was “not soluble”. In the case of “MSFFPGNDPVAGDAFACDAIENLIIPRTSDIGGFAVRRALPTRQRRLVGPFIFFDRMGPAILKAGEALDVKPHPHIGLSTVTYLFDGEIKHRDSLGTELVIRPGDINLMTAGRGIVHSERTPENLRGHPLSMSGLQTWLALPDHMEEIAPAFAHTAKEDMPLIDIKGASGRVVIGEFEGLTSPVSAFTDTLYVDLSLEPGVKFPFSADHEERAIYILSGSLDVAGDIFAADQLLVFRPGDDITLQAGSNGCHIMIFGGAALNQRRYIWWNFVSSSKERIEQAKQEWRTGRFDIVPGDEEEFVPLPEG”, the “soluble on expression in E. coli” value was “not soluble”. In the case of “MVQFLAQMPTGTSSFQAAITENEEGRLFEKYGQLLQESPPASNRPSLGIEGASGLPRPGMCPGRDCSPGSCLAALCPRPPPLYLMVPGKASGMAEAELRATLPCSCGSIPLSTPKR”, the “soluble on expression in E. coli” value was “soluble”. For “MFQIGEHNMILIYKLTLTKLTEDELKKDFATIPSWATHLDLSNNRLGETSNEELIRVFAKIPGWISHIKLRFNNLGQKNGKDLAKAFAKIPISVTTLDLGSNQLGKKSGEELANAFAGIPTSVTRLILSQNELYKRTGGELATAFAKIPSSVTHLVLVNNGLGEKNGKELATAFANIPSSVTTLDLALNDLSKIKSTELAVIFTKIPTSVTQLDLSHNNLNKKSGKNLAKIFANIPTSVTNLNLSCNELGKKSGKGLAAAFAKIPTSVTDLNIEDNDLDNRTGKELAMAFAHIPAFVNTLRLGDNNLGNKSGEELAEIFAKIPLSVTSLDLRYNELGKRNGKELAIAFAKIPSSVTNLNLKFNHLGKITGEELAMAFANIPTNVDSLVLANNELGAKSGEELAKIFSKIPASITSLNMGNDWFAVIEKLSQQKMVLSTITHVVIDYSSAQEHSAKLKLLATVFPNLNKVTFMDIHGNNALAGQNPIEEAKWLKLCGIKNSVPSLLSQALFFVAKNKEHRSIQDYPSLLPKELTDSISSLLKC”, the “soluble on expression in E. coli” value was “not soluble”.
